This is an account of results in paper PMC6251712 (Archives of biochemistry and biophysics, 2018).

The target in assay [1] is FAM-labeled c-MET peptide (1353-1360) with Y1356 phosphorylated, FAM-N-A-T-pY-V-N-V-K. Description: fluorescence polarisation.
For assay [2], the target named is SHIP2 SH2 domain (SHIP2-SH2), wild type (human) (UniProt O15357). Description: NMR titration.
The next assay addresses T1, SHIP2-SH2 R70A (human, UniProt O15357 20-117, R70A).
T1 sequence (looked up): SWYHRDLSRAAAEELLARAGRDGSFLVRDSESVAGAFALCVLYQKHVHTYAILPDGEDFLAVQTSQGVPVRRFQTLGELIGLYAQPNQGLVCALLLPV
Description: fluorescence polarisation.

A further assay concerns the target T2, SHIP2-SH2 S84A (human, UniProt O15357 20-117, S84A).
T2 sequence (looked up): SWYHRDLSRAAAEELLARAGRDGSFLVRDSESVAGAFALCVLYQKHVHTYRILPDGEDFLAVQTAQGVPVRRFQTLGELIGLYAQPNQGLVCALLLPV
Description: fluorescence polarisation.

A further assay deals with T3, SHIP2-SH2 S27A (human, UniProt O15357 20-117, S27A).
T3 sequence (looked up): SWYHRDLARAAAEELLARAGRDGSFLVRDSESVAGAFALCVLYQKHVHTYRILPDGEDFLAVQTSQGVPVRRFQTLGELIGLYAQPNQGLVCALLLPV
Description: fluorescence polarisation.

A further assay addresses T4, SHIP2-SH2 S49A (human, UniProt O15357 20-117, S49A).
T4 sequence (looked up): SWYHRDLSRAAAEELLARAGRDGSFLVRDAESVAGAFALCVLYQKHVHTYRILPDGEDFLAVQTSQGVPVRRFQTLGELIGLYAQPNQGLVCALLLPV
Description: fluorescence polarisation.

A further assay has as its target T5, SHIP2-SH2 Q82A (human, UniProt O15357 20-117, Q82A).
T5 sequence (looked up): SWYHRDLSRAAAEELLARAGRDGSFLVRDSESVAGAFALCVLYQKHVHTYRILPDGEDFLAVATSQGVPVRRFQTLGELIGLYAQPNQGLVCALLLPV
Description: fluorescence polarisation.

The target of a further assay is T6, SHIP2-SH2 D48A (human, UniProt O15357 20-117, D48A).
T6 sequence (looked up): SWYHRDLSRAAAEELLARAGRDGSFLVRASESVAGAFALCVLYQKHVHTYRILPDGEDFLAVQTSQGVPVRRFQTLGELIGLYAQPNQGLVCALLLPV
Description: fluorescence polarisation.

The target in the next assay is T7, SHIP2-SH2 E50A (human, UniProt O15357 20-117, E50A).
T7 sequence (looked up): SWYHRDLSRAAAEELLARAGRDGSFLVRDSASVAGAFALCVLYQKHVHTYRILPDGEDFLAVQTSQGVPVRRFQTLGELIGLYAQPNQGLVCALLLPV
Description: fluorescence polarisation.

The next assay deals with T8, SHIP2-SH2 R28A (human, UniProt O15357 20-117, R28A).
T8 sequence (looked up): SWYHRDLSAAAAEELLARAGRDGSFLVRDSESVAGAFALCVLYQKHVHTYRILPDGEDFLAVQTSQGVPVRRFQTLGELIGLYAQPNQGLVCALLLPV
Description: fluorescence polarisation.

Non-standard residues stand in square brackets, D forms with d. No end group written: not given here. FAM = fluorescent label on the peptide N-terminus (FAM, not expanded in the evidence); pY = N[C@@H](Cc1ccc(OP(=O)(O)O)cc1)C(=O)O

In the case of “SHIP2 SH2 domain (SHIP2-SH2), wild type (from UniProt O15357 20-117) (domain or fragment)”, the dissociation constant Kd in assay [1] amounted to 7.4 µM.
Regarding “Y1356-phosphorylated c-MET peptide (1353-1360), N-A-T-pY-V-N-V-K, unlabeled”, the Kd in assay [2] is 16.5 µM.
Take {FAM}-NAT[pY]VNVK [FAM-labeled c-MET peptide (1353-1360) with Y1356 phosphorylated, FAM-N-A-T-pY-V-N-V-K]: the Kd with SHIP2-SH2 R70A worked out at 239 ± 12.1 µM; in the assay with SHIP2-SH2 S84A, 6.4 ± 0.2 µM; with SHIP2-SH2 S27A, 7.3 ± 0.3 µM; with SHIP2-SH2 S49A, 134 ± 5.6 µM; with SHIP2-SH2 Q82A, 7.5 ± 0.3 µM; with SHIP2-SH2 D48A it was 5.5 ± 0.2 µM. Further, the values for the Kd in the assay with SHIP2-SH2 E50A and with SHIP2-SH2 R28A were 3.2 ± 0.1 µM and 24.7 ± 1 µM, respectively.
